Measured values as given in US20050272633A1.

Biological target: endogenous NIK of mouse embryonic fibroblast cells (mouse) (UniProt Q9WUL6)
Experiment: cell-based or functional assay

Chain of endogenous NIK of mouse embryonic fibroblast cells (mouse) (Q9WUL6 whole entry): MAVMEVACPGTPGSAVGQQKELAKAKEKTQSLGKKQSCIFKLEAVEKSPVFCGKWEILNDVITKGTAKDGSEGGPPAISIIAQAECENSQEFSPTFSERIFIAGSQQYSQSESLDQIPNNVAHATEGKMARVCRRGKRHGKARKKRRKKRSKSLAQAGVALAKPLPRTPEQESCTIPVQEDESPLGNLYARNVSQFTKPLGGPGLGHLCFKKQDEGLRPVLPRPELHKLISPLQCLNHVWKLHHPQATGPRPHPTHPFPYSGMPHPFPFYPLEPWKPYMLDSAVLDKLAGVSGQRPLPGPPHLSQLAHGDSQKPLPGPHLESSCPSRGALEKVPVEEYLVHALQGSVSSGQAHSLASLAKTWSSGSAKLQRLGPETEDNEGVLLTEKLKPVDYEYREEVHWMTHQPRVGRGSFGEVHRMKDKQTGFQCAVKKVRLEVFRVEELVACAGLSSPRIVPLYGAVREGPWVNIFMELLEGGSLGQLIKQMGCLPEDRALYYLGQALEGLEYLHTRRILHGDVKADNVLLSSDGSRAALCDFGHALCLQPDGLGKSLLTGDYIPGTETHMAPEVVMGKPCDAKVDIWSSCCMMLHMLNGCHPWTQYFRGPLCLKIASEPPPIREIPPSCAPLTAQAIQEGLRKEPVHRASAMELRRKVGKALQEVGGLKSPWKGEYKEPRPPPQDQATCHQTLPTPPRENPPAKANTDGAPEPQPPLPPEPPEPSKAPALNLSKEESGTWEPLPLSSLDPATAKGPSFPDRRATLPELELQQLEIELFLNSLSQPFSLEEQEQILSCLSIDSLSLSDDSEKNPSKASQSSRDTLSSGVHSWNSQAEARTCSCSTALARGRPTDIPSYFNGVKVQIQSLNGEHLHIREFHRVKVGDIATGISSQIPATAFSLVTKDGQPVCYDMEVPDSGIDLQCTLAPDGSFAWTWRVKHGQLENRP

Substance	NF-κB activation by LTβ, luciferase reporter assay, mouse embryonic fibroblast cell line	decrease in NF-κB activation by LTβ, luciferase reporter assay, mouse embryonic fibroblast cell line
GST fusion protein with the intracellular domain of cγc (pGSTICcγc) (from UniProt P31785 284-369)	2.5 fold	
GST-41MDD fusion protein (from UniProt P31785 329-369)		50%
